Data from publication PMC9771362.
pKd: −log10 of the molar value. One block for each substance: values may come before it.

What was measured:
[1] = molecular target: Chaetomium thermophilum nuclear distribution protein NudE coiled-coil, NudECC (residues 1-190) (Chaetomium thermophilum); test: AUC; sedimentation equilibrium, dimer to monomers; three concentrations in the range 15-60 µM, 10,000, 14,000 and 18,000 rpm, 20°C; global fit to a monomer-dimer self-association model
[2] = molecular target: Chaetomium thermophilum dynactin p150^Glued coiled-coil 1B, p150_(CC1B) (residues 478-680) (Chaetomium thermophilum); test: SEC-MALS; complexes of IC fragments (IC_(1-88)/IC_(100-260); IC_(1-88)/p150_(CC1B)) and p150_(CC1B) alone; Superdex 200; conditions not given
[3] = molecular target: Chaetomium thermophilum dynein intermediate chain IC_(100-260) (Chaetomium thermophilum); test: as above
[4] = molecular target: Chaetomium thermophilum dynactin p150^Glued coiled-coil 1B, p150_(CC1B) (residues 478-680) (Chaetomium thermophilum); test: ITC; IC construct in the syringe (200-400 µM) titrated into p150_(CC1B) or NudECC in the cell (20-40 µM); 25°C; 50 mM sodium phosphate pH 7.5, 50 mM NaCl, 1 mM sodium azide; two-step model for p150_(CC1B), one-site model for NudECC
[5] = molecular target: Chaetomium thermophilum nuclear distribution protein NudE coiled-coil, NudECC (residues 1-190) (Chaetomium thermophilum); test: as above
[6] = molecular target: Chaetomium thermophilum dynactin p150^Glued coiled-coil 1B, p150_(CC1B) (residues 478-680) (Chaetomium thermophilum); test: AUC; sedimentation equilibrium, dimer to monomers; three concentrations in the range 15-60 µM, 10,000, 14,000 and 18,000 rpm, 20°C; global fit to a monomer-dimer self-association model

pKd [1]: 6.70 | stoichiometry N [1]: 2
Substance: Chaetomium thermophilum nuclear distribution protein NudE coiled-coil, NudECC (residues 1-190) (domain or fragment)

stoichiometry N (IC (1-88) chains per p150 (CC1B) dimer) [2]: 2 | stoichiometry N [3]: 1 | N of each step (two-step binding model) [4]: 0.5 | stoichiometry N [4]: 1 | pKd [5]: 6.52 | stoichiometry N [5]: 1
Substance: Chaetomium thermophilum dynein intermediate chain IC_(1-88) (domain or fragment)

pKd [4]: 4.70
Substance: Chaetomium thermophilum dynein intermediate chain IC_(37-88) (domain or fragment)

stoichiometry N [2]: 2 | pKd [6]: 7.52 | stoichiometry N [6]: 2
Substance: Chaetomium thermophilum dynactin p150^Glued coiled-coil 1B, p150_(CC1B) (residues 478-680) (domain or fragment)
